Results from patent US20220267415A1.

Legend:
Settings in all cases: remark: other sources report otherwise
[1] = target: T1, recombinant Spike protein (Sino Biologicals Cat #40589-V08B1) (SARS-CoV-2), P0DTC2; assay: ELISA on coated recombinant spike
[2] = target: recombinant SARS-CoV-2 Receptor Binding Domain (RBD) with a his tag (ATUM, Cat. 65639.1.a) (SARS-CoV-2), P0DTC2; assay: ELISA on coated RBD-his
[3] = target: T1, recombinant Spike protein (Sino …); assay: BLI (Octet), His-tagged S on Ni-NTA sensor, avidity
[4] = target: T2, wild type RBD protein (generated as in Ku et al. 2021) (SARS-CoV-2), P0DTC2; assay: BLI competition, RBD on sensor, antibody then ACE2; competitor ACE2
[5] = target: T2, wild type RBD protein (generated as in …); assay: binding KD on RBD protein, generally as Example 4

B1: anti-SARS-CoV2-14 IgG (lambda-VL-kappa-CL hybrid light chain) (antibody, V domains shown)
VH: EVQLQQSGPGLVKPSQTLSLTCAISGDSVSSNSAAWNWIRQSPSRGLEWLGRTYYRSKWYNDYAVSVKSRITINPDTSKNQFSLQLNSVTPEDTAVYYCAREEQQLVHDYYYYGMDVWGQGTMVTVSS
VL: QAVVTQPASVSGSPGQSITISCTGTSSDIGAYNYISWYQQHPGKAPKLIIYEVSNRPSGISYRFSGSKSGNTASLTISGLQAEDEANYYCSSYAGSISFGGGTKVTVL
Work on B1 yielded an EC50 [1] of 6.22 nM, an EC50 [2] greater than 60 nM and a Kd [3] of 1.39 nM. The koff [3] was 0.0013 s⁻¹ and the kon [3] was 933000 M⁻¹ s⁻¹.

B2: anti-SARS-CoV2-14 IgG (full lambda light chain) (antibody, V domains shown)
VH: EVQLQQSGPGLVKPSQTLSLTCAISGDSVSSNSAAWNWIRQSPSRGLEWLGRTYYRSKWYNDYAVSVKSRITINPDTSKNQFSLQLNSVTPEDTAVYYCAREEQQLVHDYYYYGMDVWGQGTMVTVSS
VL: QAVVTQPASVSGSPGQSITISCTGTSSDIGAYNYISWYQQHPGKAPKLIIYEVSNRPSGISYRFSGSKSGNTASLTISGLQAEDEANYYCSSYAGSISFGGGTKVTVL
With B2 the EC50 [4] was 18.6 nM and the Kd [5] was 0.82 nM.
